This experiment concerns the target Francisella tularensis polyphosphate kinase 2 (FtPPK2) (Francisella tularensis subspecies tularensis SCHU S4). In words: crystal structure.

For orientation: stoichiometry N means the number of molecules, sites or subunits per partner or assembly. “Francisella tularensis polyphosphate kinase 2 (FtPPK2) (enzyme)” yielded a stoichiometry N of 4.

Source of the values: PMC4748334.
